Measured values published in patent US11202837B2, “Biological materials and uses thereof” (Antikor Biopharma Limited, priority 2014, dated 2021).
Where a SMILES comes first, the peptide text is derived from it. [ ]: non-standard residue; d: D form. Dolaproine = CO[C@@H]([C@@H]1CCCN1)[C@@H](C)C(=O)O; Dil = CC[C@H](C)[C@H](NC)[C@@H](CC(=O)O)OC; NMeV = CN[C@H](C(=O)O)C(C)C

Key:
[1] = tested on: BT474 human breast carcinoma xenografts; assay: Tumour growth inhibition or eradication in BT474 xenograft model; assay type: in vivo; settings: free payload treated group
Procedure: Mice. […] The animals were fed ad libitum water (reverse osmosis, 1 ppm Cl), and NIH 31 Modified and Irradiated Lab Diet® consisting of 18.0% crude protein, 5.0% crude fat, and 5.0% crude fiber. The mice were housed on irradiated Enrich-o'cobs™ Laboratory Animal Bedding in static microisolators on a 12-hour light cycle at 20-22° C. (68-72° F.) and 40-60% humidity. Charles River Discovery Services North Carolina (CR Discovery Services, who carried out this contracted R&D) specifically complies with the recommendations of the Guide for Care and Use of Laboratory Animals with respect to restraint, husbandry, surgical procedures, feed and fluid regulation, and veterinary care.
Tumor weight may be estimated with the assumption that 1 mg is equivalent to 1 mm^3 of tumor volume.

HER2 = HER2 (Homo sapiens, UniProt P04626); assay: Biacore SPR binding to immobilised HER2; settings: compared to unmodified scFv
Procedure: The binding affinity against immobilised HER2 target antigen was determined by Biacore SPR compared to the unmodified scFv on a Biacore T200. A standard amine-coupling method was used to prepare all Biacore surfaces (CM5 or CM3), as follows. Flow cells were activated individually by injecting a freshly mixed solution of 0.2M EDC in 0.05 M NHS at 30 μl/min. […] Excess NHS ester was deactivated using a 1 M ethanolamine solution. To measure the kinetics of the antibody and conjugate on the HER2 chip, a […] serial dilution (typically at 5, 2.5, 1.25, 0.6 μg/ml or lower for free antibody and 20, 10, 5, 2.5 μg/ml for the conjugates), was injected for 160 s at 30 μl/min, allowing a 900-s dissociation phase. The dissociation time was extended to 3600 s for the highest concentration. Surfaces were regenerated with 45 s injection of MgCl2 8M.
To evaluate binding ability, manual runs were performed at 30 μl/min with a 60 s injection of the desired compound followed by 60 s waiting time and a 45 s of regeneration at 10 μl/min using MgCl2 8M. All data was analysed using the software, BIAEvaluation.

[2] = Concentration reached and storage stability of purified conjugates in buffer; assay type: physicochemical
[3] = Aggregation by HPLC size-exclusion chromatography; assay type: physicochemical; settings: purified or analysed conjugate vs unconjugated antibody
Procedure: Aggregation can be tested by analytical size-exclusion HPLC measuring the percentage of high molecular weight material compared to the conjugate eluting at a retention time characteristic of a monomeric conjugate.
Typically, 20 μg of protein was injected for analytical runs and 300 μg for semi-preparative runs.

U87 cells = assay: Cell killing assay (MTS), U87 cells; assay type: cell-based; settings: U87 Cells (HER2−), 96 hours, Table 51
Procedure: SKBr3, human breast cancer cell line, high HER2 expression levels, up to 1,000,000 receptors per cell [Lazar G A, et al Proc Natl Acad Sci USA. […] When confluency was 70-80%, cells were washed with PBS (2×10 ml) and incubated with trypsin for 5-7 min. Complete media was added and the cells were resuspended by pipetting. The cells were recovered by centrifugation (2 min, 2000 rpm), the supernatant was discarded, and the cells were resuspended in complete DMEM (5 ml). The cells were then counted using a haemocytometer and diluted accordingly. They were plated at 4500 cells/well (200 μl) using attachment factor and incubated overnight at 37° C., 5% CO2 in a humidified atmosphere. U87 is a non-HER2 expressing glioblastoma cell line and was grown in a similar way, plated at 1000 cells/well.
(§1) The cells were exposed to the various ADCs diluted in complete media for 96 hours at 37° C., 5% CO2 in a humidified atmosphere. Cell viability was measured using the Promega Aqueous Cell-titre-96™ aqueous one solution cell proliferation kit according to manufacturer's instructions. Briefly, the media was removed and 100 μl of complete phenol red free media, pre-combined with MTS reagent, was added to the cells (20 μl of reagent per 100 μl of media). The plates were read on an ELISA plate reader at 490 nm after a 2 hr incubation in the dark (5% CO2, 37° C.).
(§2) The data (absorption units) were converted to % cell survival by using the untreated controls as the 100% cell survival and the Triton X-100 controls as the 100% cell death. The average absorption value for the latter was subtracted from all the rest of the data in order to get a suitable baseline. The averages were converted to survival and standard error values were obtained for each n value (as a % cell survival). […] Experiments were repeated at least 3 times for each compound tested and a set or an average of the data was plotted and fitted to obtain a dose response curve.
(§3) The cells were recovered by centrifugation (2 min, 2000 rpm), the supernatant was discarded, and the cells were resuspended in complete McCoy's 5A (5 ml). The cells were then counted using a haemocytometer and diluted accordingly. They were plated at 5000 cells/well (200 μl) using attachment factor and incubated overnight at 37° C., 5% CO2 in a humidified atmosphere. U87 is a non-HER2 expressing glioblastoma cell line [Zitron I M et al (2013) BMC Cancer 13:83] and was grown in a similar way, plated at 1000 cells/well (using DMEM media). BT474 is a HER2 expressing breast cancer cell line [Brockhoff G et al (2007) Cell Prolif 40:488-507] and was grown in a similar way, plated at 7500 cells/well (using RPMI media). NCI-N87 is a HER2 expressing gastric cancer cell line [Yamashita-Kashima Y et al (2013) Oncol. Rep 30:1087-93] and was grown in a similar way, plated at 7500 cells/well (using RPMI media).
as §1, with “kit (MTS reagent)” for “kit”
The data (absorption units) were converted to % cell survival by using the untreated controls as the 100% cell survival and the Triton X-100 controls as the 100% cell death. The average absorption value for the latter was subtracted from all the rest of the data in order to get a suitable baseline. The averages were converted to survival and standard error values were obtained for each n value (as a % cell survival).

NCI-N87 cells = assay: Cell killing assay (MTS), NCI-N87 cells; assay type: cell-based, human; settings: NCI-N87 Cells (HER2++), 96 hours, Table 51
Procedure: as §3
as §1, with “kit (MTS reagent)” for “kit”
as §2, with “dose-response” for “dose response”

SKBr3 cells = assay: Cell killing assay (MTS), SKBr3 cells; assay type: cell-based, human; settings: SKBr3 Cells (HER2+++), 96 hours, Table 51

CC[C@H](C)[C@@H]([C@@H](CC(=O)N1CCC[C@H]1[C@H](OC)[C@@H](C)C(=O)N[C@@H](Cc1ccccc1)C(=O)O)OC)N(C)C(=O)[C@@H](NC(=O)[C@@H](NC)C(C)C)C(C)C [Free MMAF, monomethyl auristatin F, reference compound] (H-[NMeV]V[Dil][Dolaproine]F-OH)
tumour growth (in words) [1]: grew rapidly

B1: scFv (TCT)-Auristatin F-C5: scFv (TCT) conjugated with Auristatin-F-C5-NHS (compound 88), 30 equivalents, average DAR 8.5 (conjugate)
scFv: SGSGGSGQVQLVQSGAEVKKPGESLKISCKGSGYSFTSYWIAWVRQMPGKGLEYMGLIYPGDSDTKYSPSFQGQVTISVDKSVSTAYLQWSSLKPSDSAVYFCARHDVGYCSSSNCAAWPEYFQHWGQGTLVTVSSGGGGSGGGGSGGGGSQSVLTQPPSVSAAPGQKVTISCSGSSSNIGNNYVSWYQQLPGTAPKLLIYGHTNRPAGVPDRFSGSKSGTSASLAISGFRSEDEADYYCAAWDDSLSGWVFGGGTKLTVLMASMTGGQQMG
binding function against immobilised HER2 (in words) (HER2): verified
time stable in the buffer ([2]; after purification and concentration): several weeks
concentration to which purified conjugates were concentrated ([2]; in buffer after SEC purification): ~600 µg/mL
aggregation by HPLC-SEC (in words) [3]: no aggregation

B2: scFv (TCT1067)-MMAE-PAB-Cit-Val-dPEG9, DAR 9 (conjugate)
scFv: SGSGGSGQVQLVQSGAEVKKPGESLKISCKGSGYSFTSYWIAWVRQMPGKGLEYMGLIYPGDSDTKYSPSFQGQVTISVDKSVSTAYLQWSSLKPSDSAVYFCARHDVGYCTDRTCAAWPEWLGVWGQGTLVTVSSGGGGSGGGGSGGGGSQSVLTQPPSVSAAPGQKVTISCSGSSSNIGNNYVSWYQQLPGTAPKLLIYGHTNRPAGVPDRFSGSKSGTSASLAISGFRSEDEADYYCASWDYTLSGWVFGGGTKLTVLMASMTGGQQMG
modifications: non-natural residues
IC50 μg/ml (U87 cells): 0.1 µg/mL
IC50 (U87 cells; read-out: IC50): 3.57 nM
IC50 μg/ml (NCI-N87 cells): 0.195 µg/mL
IC50 (NCI-N87 cells): 6.95 nM
IC50 μg/ml (SKBr3 cells): 0.04476 µg/mL
IC50 (SKBr3 cells; read-out: IC50): 1.59 nM
